Test results: paper PMC2702000 (PLoS Pathogens, 2009)

Assays:
AUC = target: the molecule itself; experiment: AUC
[1] = target: the molecule itself; experiment: solution NMR structure (inter-monomer NOEs, PRE, RDCs)

Protein | stoichiometry N (AUC) | binding result [1]
full length SARS-CoV E protein (natural protein) MYSFVSEETGTLIVNSVLLFLAFVVFLLVTLAILTALRLCAYCCNIVNVSLVKPTVYVYSRVKNLNSSEGVPDLLV | 5 | 
EETGTLIVNSVLLFLAFVVFLLVTLAILTALRLCAY [synthetic ETM spanning residues 7-42 of SARS-CoV E] | 5 | 
ETGTLIVNSVLLFLAFVVFLLVTLAILTALR [ETM peptide, transmembrane domain of SARS-CoV E (residues 8-38)] |  | binds
